Measurements taken from patent publication US20250136687A1 (SHANDONG SIMCERE BIOPHARMACEUTICAL, published 2025).
Read-outs that look alike come from different tables or passages of the source.

Columns and labels:
[1] = molecular target: T1, human CD3ε/δ-His (human, UniProt P07766 23-126; P04234 22-105); assay: ELISA, coated antigen
T1 construct: Bought recombinant heterodimer with His tag; also called human CD3ε/δ protein
Experimental: (§1) To detect the binding activity of the humanized antibodies to CD3 protein, CD3 protein was diluted with PBS to the final concentration of […], then added to a 96-well ELISA plate at 50 μL/well, and the plate was sealed with a plastic film, and incubated overnight at 4° C. On the next day, the plate was washed 2 times with PBS, and a blocking solution [PBS+2% (v/v) BSA] was added for blocking at room temperature for 2 h. The blocking solution was poured off, and the antibody (initial concentration of 100 nM, and gradient dilution at 1:10) or a negative control antibody was added at 50 µl/well. After incubation at 37° C. for 2 h, the plate was washed 3 times with PBS. […] TMB substrate was added at 50 μl/well, and incubated at room temperature for 10 min, and then a stop solution (1.0 N HCl) was added at 50 μl/well. The OD450 nm values were read by an ELISA microplate reader (Multimode Plate Reader, EnSight, purchased from Perkin Elmer).

[2] = molecular target: T2, human CD3 on the cell surface (Jurkat cells, expanded human T cells, Jurkat-Lucia NFAT cells, human PBMC) (human, UniProt P07766 23-207; P04234 22-171; P09693 23-182); assay: FACS, expanded human T cells
T2 construct: whole, on cells; Endogenous CD3 within the TCR-CD3 complex on cells (also zeta chains and TCR); the cell type is named under assay
Experimental: (§2) The binding of the chimeric antibodies to CD3 on the cell surface was analyzed by detecting the binding of the antibodies to Jurkat cells and human T cells. Suspension cells Jurkat cells were scale-up cultured in T-75 cell culture flasks to the logarithmic growth phase, the supernatant of the medium was discarded by centrifugation, and the cell pellet was washed 2 times with PBS for later use. The expanded human T cells were washed 2 times with PBS for later use. After counting the cells in the previous step, the cell pellet was resuspended with [PBS+2% (w/w) BSA] blocking solution to 4×10⁶ cells/ml, and added to a 96-well FACS reaction plate at 50 μl/well, and then the chimeric antibody to be tested was added at 50 μl/well, and incubated at 4° C. for 1 h. The cells were centrifuged and washed 3 times with a PBS buffer. […] The cells were centrifuged and washed 5 times with PBS, and FACS (FACS Canto™, purchased from BD Company) was used for detection and result analysis. Data analysis was performed by software (CellQuest) to obtain the mean fluorescence […] (MFI) of the cells. And then software (GraphPad Prism8) was used for analysis, data fitting, and EC50 value calculation. The same method was used to simultaneously detect the binding of the chimeric antibodies to endogenous CD3 negative cells MOLT4 cells.

[3] = molecular target: T2, human CD3 on the cell surface (Jurkat …); assay: FACS, expanded human T cells; remark: listed apart in the source
Experimental: as §2

[4] = molecular target: T3, cynomolgus monkey CD3 on the surface of expanded monkey T cells (cynomolgus monkey, UniProt Q95LI5 22-198; Q95LI8 22-171; Q95LI7 23-181); assay: FACS, expanded monkey T cells
T3 construct: whole, on cells; Endogenous CD3 within the TCR-CD3 complex on T cells expanded from cynomolgus monkey PBMC

[5] = molecular target: T2, human CD3 on the cell surface (Jurkat …); assay: cell-based or functional assay
[6] = molecular target: T2, human CD3 on the cell surface (Jurkat …); assay: FACS, expanded human T cells; remark: listed apart in the source
Experimental: as §2

[7] = molecular target: T2, human CD3 on the cell surface (Jurkat …); assay: FACS, Jurkat cells
Experimental: as §2

[8] = molecular target: T3, cynomolgus monkey CD3 on the surface of …; assay: FACS, expanded monkey T cells, 4 nM antibody
Experimental: as §2
FACS detection and data analysis were performed on the cryopreserved monkey T cells of Example 2.4 according to the method in Example 5.1.

[9] = molecular target: T2, human CD3 on the cell surface (Jurkat …); assay: cell-based or functional assay; remark: listed apart in the source
[10] = molecular target: T2, human CD3 on the cell surface (Jurkat …); assay: FACS, Jurkat cells; remark: listed apart in the source
Experimental: as §2

[11] = molecular target: T2, human CD3 on the cell surface (Jurkat …); assay: FACS, expanded human T cells; remark: listed apart in the source
Experimental: as §2

[12] = molecular target: T4, recombinant human CD3ε-ECD His protein (human, UniProt P07766 23-126); assay: ELISA, coated antigen
T4 construct: extracellular domain; also called human CD3ε-His; CD3ε antigen protein; not shown: His tag
Experimental: as §1

[13] = molecular target: T1, human CD3ε/δ-His; assay: ELISA, coated antigen; remark: listed apart in the source
Experimental: as §1

[14] = molecular target: T2, human CD3 on the cell surface (Jurkat …); assay: FACS, Jurkat cells; remark: listed apart in the source
Experimental: as §2

T2 sequence (P07766 23-207, chain 1 of 3): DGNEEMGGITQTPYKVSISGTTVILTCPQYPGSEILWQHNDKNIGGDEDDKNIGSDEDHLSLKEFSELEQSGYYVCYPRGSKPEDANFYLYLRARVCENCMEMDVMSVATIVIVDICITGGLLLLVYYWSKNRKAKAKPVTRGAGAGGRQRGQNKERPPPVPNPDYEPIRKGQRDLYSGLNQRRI
T2 sequence (P04234 22-171, chain 2 of 3): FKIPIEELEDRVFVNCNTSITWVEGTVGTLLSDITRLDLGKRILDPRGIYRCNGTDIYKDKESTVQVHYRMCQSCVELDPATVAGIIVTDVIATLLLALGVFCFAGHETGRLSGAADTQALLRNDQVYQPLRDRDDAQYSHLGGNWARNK
T2 sequence (P09693 23-182, chain 3 of 3): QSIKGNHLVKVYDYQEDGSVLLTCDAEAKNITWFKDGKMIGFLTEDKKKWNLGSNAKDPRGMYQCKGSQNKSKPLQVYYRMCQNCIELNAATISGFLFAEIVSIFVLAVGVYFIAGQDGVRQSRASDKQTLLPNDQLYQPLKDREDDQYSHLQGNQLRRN
T1 sequence (P07766 23-126, stated change not applied, form in doubt, chain 1 of 2): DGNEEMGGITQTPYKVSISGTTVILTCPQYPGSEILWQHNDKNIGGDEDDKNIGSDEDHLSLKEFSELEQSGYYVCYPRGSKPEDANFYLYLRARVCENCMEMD
T1 sequence (P04234 22-105, stated change not applied, form in doubt, chain 2 of 2): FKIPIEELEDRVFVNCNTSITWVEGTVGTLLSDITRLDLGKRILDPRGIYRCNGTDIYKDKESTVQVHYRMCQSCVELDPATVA
T4 sequence (P07766 23-126): as the sequence (P07766 23-126, stated change not applied, form in doubt, chain 1 of 2) above
T3 sequence (Q95LI5 22-198, chain 1 of 3): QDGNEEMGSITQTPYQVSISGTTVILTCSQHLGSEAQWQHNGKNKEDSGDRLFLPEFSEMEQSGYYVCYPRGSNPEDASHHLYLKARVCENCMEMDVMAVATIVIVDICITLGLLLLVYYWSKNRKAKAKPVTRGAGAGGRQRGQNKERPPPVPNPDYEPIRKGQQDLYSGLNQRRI
T3 sequence (Q95LI8 22-171, chain 2 of 3): as the sequence (P04234 22-171, chain 2 of 3) above, with I5V, N15K, I20V, S32T, D33N, I34N, T64A, S74N, V83L, H141R counted along it
T3 sequence (Q95LI7 23-181, chain 3 of 3): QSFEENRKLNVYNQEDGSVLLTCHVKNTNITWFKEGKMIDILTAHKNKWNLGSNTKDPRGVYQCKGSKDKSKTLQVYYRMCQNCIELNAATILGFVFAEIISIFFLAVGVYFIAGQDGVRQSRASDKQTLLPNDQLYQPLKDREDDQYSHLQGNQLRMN

max-OD450 [1] [OD450] | EC50 [2] [nM] | MFI_Max [2] [MFI] | EC50 [3] [nM] | MFI_Max [3] [MFI] | max_MFI [4] [MFI] | Maximum response value (RLU) [5] [RLU] | EC50 [6] [nM] | MFI_Max [6] [MFI] | EC50 [7] [nM] | MFI_Max [7] [MFI] | MFI at antibody concentration 4 nM [8] [MFI] | Maximum response value (RLU) [9] [RLU] | EC50 [10] [nM] | MFI_Max [10] [MFI] | EC50 [11] [nM] | MFI_Max [11] [MFI] | max-OD450 [12] [OD450] | max-OD450 [13] [OD450] | EC50 [14] [nM] | Binder | other results
0.16 | 15.8 | 2360 | 7.56 | 8780 | 72 | 8220 | 5.71 | 5080 | 20.4 | 4860 | 63 | 12000 | 8.77 | 841 | 10.4 | 1980 | 0.16 | 0.16 | 6.18 | F2B-hIgG1 (antibody, V domains shown, also called F2Bs) VH: EVQLVESGGGLVQPGRSLRLSCAASGFTFDDYAMHWVRQAPGKGLEWVSGISWNSGSIGYADSVKGRFTISRDNAKNSLYLQMNSLRAEDTALYYCAKDSRGYGDYRLGGAYWGQGTLVTVSS VL: not shown | MFI_Max [14]: 2080 MFI
2.83 | 0.66 | 15400 | 0.46 | 40900 | 24100 | 25400 | 0.99 | 26500 | 0.1 | 29500 | 41000 | 46900 | 0.16 | 6340 | 0.7 | 12300 | 2.59 | 2.83 | 0.47 | 40G5c-hIgG1 (antibody, V domains shown) VH: EVQLVQSGAEVKKPGASVKVSCKASGYTFTNYYIHWVRQAPGQGLEWIGWIYPGDGNTKYNEKFKGRATLTADTSTSTAYLELSSLRSEDTAVYYCARDSYSNYYFDYWGQGTLVTVSS VL: DIVMTQSPDSLAVSLGERATINCKSSQSLLNSRTRKNYLAWYQQKPGQPPKLLIYWASTRESGVPDRFSGSGSGTDFTLTISSLQAEDVAVYYCTQSFILRTFGQGTKVEIKR | EC50 [1]: 0.36 nM; EC50 [4]: 0.89 nM; EC50 (nM), luciferase reporter, Jurkat-Lucia NFAT cells [5]: 22.5 nM; EC50 (nM), luciferase reporter, Jurkat-Lucia NFAT cells [9]: 5.97 nM; EC50 [12]: 0.22 nM; EC50 [13]: 0.36 nM; MFI_Max [14]: 11300 MFI
